T1: cynomolgus monkey FcγRIIa1 extracellular domain, His-tagged (cynomolgus monkey)
T1 construct: also called cyno FcγRIIa1; cynoFcgRIIa1; not shown: C-terminal His-tag
T1 chain: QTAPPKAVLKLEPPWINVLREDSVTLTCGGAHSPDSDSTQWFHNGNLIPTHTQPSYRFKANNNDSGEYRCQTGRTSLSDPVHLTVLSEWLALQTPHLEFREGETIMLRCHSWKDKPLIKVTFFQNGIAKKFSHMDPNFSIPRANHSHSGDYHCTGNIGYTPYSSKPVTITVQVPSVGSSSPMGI

T2: cynomolgus monkey FcγRIIa2 extracellular domain, His-tagged (cynomolgus monkey)
T2 construct: also called cyno FcγRIIa2; cynoFcgRIIa2; not shown: C-terminal His-tag
T2 chain: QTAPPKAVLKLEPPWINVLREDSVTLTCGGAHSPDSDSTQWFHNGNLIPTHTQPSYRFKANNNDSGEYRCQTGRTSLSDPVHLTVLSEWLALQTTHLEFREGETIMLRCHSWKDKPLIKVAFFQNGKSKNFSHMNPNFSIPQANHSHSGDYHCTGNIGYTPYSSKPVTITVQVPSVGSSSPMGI

T3: cynomolgus monkey FcγRIIa3 extracellular domain, His-tagged (cynomolgus monkey)
T3 construct: also called cyno FcγRIIa3; cynoFcgRIIa3; not shown: C-terminal His-tag
T3 chain: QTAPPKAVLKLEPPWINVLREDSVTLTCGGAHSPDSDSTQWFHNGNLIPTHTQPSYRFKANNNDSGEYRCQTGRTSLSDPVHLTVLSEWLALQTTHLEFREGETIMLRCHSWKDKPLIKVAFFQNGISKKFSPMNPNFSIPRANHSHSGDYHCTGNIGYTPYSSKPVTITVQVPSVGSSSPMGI

T4: cynomolgus monkey FcγRIIb extracellular domain, His-tagged (cynomolgus monkey)
T4 construct: also called cyno FcγRIIb; cynoFcγRIIb; not shown: C-terminal His-tag
T4 chain: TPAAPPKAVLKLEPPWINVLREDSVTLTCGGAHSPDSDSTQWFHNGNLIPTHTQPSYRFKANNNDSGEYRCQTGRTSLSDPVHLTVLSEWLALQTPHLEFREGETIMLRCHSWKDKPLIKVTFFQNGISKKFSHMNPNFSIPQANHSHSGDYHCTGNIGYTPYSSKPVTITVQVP

T5: cynomolgus monkey FcγRIIIaS extracellular domain, His-tagged (cynomolgus monkey, UniProt Q8SPW2 21-206 at identity 1.00))
T5 construct: also called cyno FcγRIIIaS; cynoFcγRIIIaS; not shown: C-terminal His-tag
T5 chain: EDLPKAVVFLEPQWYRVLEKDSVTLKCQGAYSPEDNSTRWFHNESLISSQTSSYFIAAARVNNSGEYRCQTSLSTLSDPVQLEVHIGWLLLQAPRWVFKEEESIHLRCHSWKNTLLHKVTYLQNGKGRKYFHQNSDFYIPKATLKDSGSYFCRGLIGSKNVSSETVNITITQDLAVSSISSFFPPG

T6: human FcγRIIaH extracellular domain, His-tagged (human, UniProt P12318 34-217)
T6 construct: also called human FcγRIIa (type H); FcgRIIaH; not shown: C-terminal His-tag
T6 sequence: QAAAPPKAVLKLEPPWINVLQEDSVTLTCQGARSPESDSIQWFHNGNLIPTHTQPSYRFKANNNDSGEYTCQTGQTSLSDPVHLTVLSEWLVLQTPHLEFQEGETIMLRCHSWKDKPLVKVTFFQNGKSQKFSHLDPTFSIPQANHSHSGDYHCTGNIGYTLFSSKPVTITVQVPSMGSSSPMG

T7: human FcγRIIaR extracellular domain, His-tagged (human, UniProt P12318 34-217)
T7 construct: also called human FcγRIIa (type R); FcgRIIaR; not shown: C-terminal His-tag
T7 chain: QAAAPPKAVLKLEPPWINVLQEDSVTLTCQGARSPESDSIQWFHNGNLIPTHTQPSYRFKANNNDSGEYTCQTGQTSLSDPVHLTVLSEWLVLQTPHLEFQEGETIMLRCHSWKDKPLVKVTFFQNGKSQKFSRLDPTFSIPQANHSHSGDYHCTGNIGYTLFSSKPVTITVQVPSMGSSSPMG

T8: human FcγRIIb extracellular domain, His-tagged (human, UniProt P31994 43-217)
T8 construct: also called FcgRIIb (human); not shown: C-terminal His-tag
T8 sequence: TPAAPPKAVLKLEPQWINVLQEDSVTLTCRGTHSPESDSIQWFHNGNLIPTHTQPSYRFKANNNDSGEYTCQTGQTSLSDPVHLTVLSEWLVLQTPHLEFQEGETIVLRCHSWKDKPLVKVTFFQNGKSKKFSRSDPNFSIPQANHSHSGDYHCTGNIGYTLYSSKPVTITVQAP


What was measured:
Test in all cases: SPR (BIACORE); KD of SG1 divided by KD of variant;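 further: relative to parent M103205H795-SG1 carrying the SG1 human heavy chain constant region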
[1] = target: T1, cynomolgus monkey FcγRIIa1 …
Description: (§1) The kinetic analysis of interactions between these antibodies and FcγR was carried out using BIACORE® T200 or BIACORE® 4000 (GE Healthcare). HBS-EP+ (GE Healthcare) was used as the running buffer, and the measurement temperature was set to 25° C. A chip produced by immobilizing Protein A. Protein A/G or mouse anti-human IgG kappa light chain (BD Biosciences) onto a Series S Sensor Chip CM4 or CM5 (GE Healthcare) by the amine-coupling method was used. […] After the measurement, the antibody captured on the chip was washed off by allowing reaction with 10 mM glycine-HCl, pH1.5 and 25 mM NaOH so that the chip was regenerated and used repeatedly. The sensorgrams obtained as measurement results were analyzed by the 1:1 Langmuir binding model using the BIACORE® Evaluation Software to calculate the binding rate constant ka (L/mol/s) and dissociation rate constant kd (l/s), and the dissociation constant KD (mol/L) was calculated from these values. […] Regarding such interactions, KD values were calculated using the following 1:1 binding model described in BIACORE® T100 Software Handbook BR1006-48 Edition AE.

[2] = target: T2, cynomolgus monkey FcγRIIa2 …
Description: as §1

[3] = target: T3, cynomolgus monkey FcγRIIa3 …
Description: as §1

[4] = target: T4, cynomolgus monkey FcγRIIb extracellular …
Description: as §1

[5] = target: T5, cynomolgus monkey FcγRIIIaS …
Description: as §1

[6] = target: T6, human FcγRIIaH extracellular domain, …
Description: as §1

[7] = target: T7, human FcγRIIaR extracellular domain, …
Description: as §1

[8] = target: T8, human FcγRIIb extracellular domain, …
Description: as §1

[9] = target: T9, human FcγRIIIaV extracellular domain, His-tagged (human, UniProt P08637 17-208)
T9 construct: also called FcgRIIIaV; not shown: C-terminal His-tag
Description: as §1

T9 sequence (P08637 17-208 F176V): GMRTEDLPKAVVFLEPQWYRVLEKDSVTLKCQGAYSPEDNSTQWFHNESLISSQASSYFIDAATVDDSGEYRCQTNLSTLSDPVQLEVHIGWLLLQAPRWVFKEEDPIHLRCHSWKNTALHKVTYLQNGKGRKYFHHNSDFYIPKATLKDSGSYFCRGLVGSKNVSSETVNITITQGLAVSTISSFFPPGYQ

Binder | KD fold (SG1 = 1) [1] [fold] | KD fold (SG1 = 1) [2] [fold] | KD fold (SG1 = 1) [3] [fold] | KD fold (SG1 = 1) [4] [fold] | KD fold (SG1 = 1) [5] [fold] | KD fold (SG1 = 1) [6] [fold] | KD fold (SG1 = 1) [7] [fold] | KD fold (SG1 = 1) [8] [fold] | KD fold (SG1 = 1) [9] [fold]
M103205H795-MY461/M103202L889-SK1 (antibody, human IgG1, kappa, copies: 2 + 2) heavy: QVTLKESGPVLVKPTETLTLTCTVSGIDLSHDDISWVRQAPGKGLEWVGIISYAGSTYYASWAKGRLTISKDTSKNQVVLTMTNMDPVDTATYYCARGVPAYSHGGDLWGQGTLVTVSSASTKGPSVFPLAPSSKSTSGGTAALGCLVKDYFPEPVTVSWNSGALTSGVHTFPAVLQSSGLYSLSSVVTVPSSSLGTQTYICNVNHKPSNTKVDKKVEPKSCDKTHTCPPCPFPELLTGPSVFLFPPKPKDTLMISRTPEVTCVVVDVSDEDPEVKFNWYVDGVEVHNAKTKPREEQYNSTYRVVSVLTVLHQDWLNGKEYKCKVSNKALPKPIEKTISKAKGQPREPQVYTLPPSREEMTKNQVSLTCLVKGFYPSDIAVEWESNGQPENNYKTTPPVLDSDGSFFLYSKLTVDKSRWQQGNVFSCSVMHEALHNHYTQKSLSLSP light: DIVMTQSPATLSLSPGERATLSCTSSQSVYHANWLSWFQQKPGQPPKLLIYWASTLAYGVPSRFSGSGSGTDFTLTISSLQPEDAATYYCAGGYGGGRYAFGQGTKVEIKRTVAAPSVFIFPPSDEQLKSGTASVVCLLNNFYPREAKVQWKVDNALQSGNSQESVTEQDSKDSTYSLSSTLTLSKADYEKHKVYACEVTHQGLSSPVTKSFNRGEC | 1.8 | 2.5 | 4.9 | 3.8 | 0.2 | 3.8 | 3.2 | 2.7 | 0.3
M103205H795-MY462/M103202L889-SK1 (antibody, human IgG1, kappa, copies: 2 + 2) heavy: QVTLKESGPVLVKPTETLTLTCTVSGIDLSHDDISWVRQAPGKGLEWVGIISYAGSTYYASWAKGRLTISKDTSKNQVVLTMTNMDPVDTATYYCARGVPAYSHGGDLWGQGTLVTVSSASTKGPSVFPLAPSSKSTSGGTAALGCLVKDYFPEPVTVSWNSGALTSGVHTFPAVLQSSGLYSLSSVVTVPSSSLGTQTYICNVNHKPSNTKVDKKVEPKSCDKTHTCPPCPGPELLTGPSVFLFPPKPKDTLMISRTPEVTCVVVDVSDEDPEVKFNWYVDGVEVHNAKTKPREEQYNSTYRVVSVLTVLHQDWLNGKEYKCKVSNKALPKPIEKTISKAKGQPREPQVYTLPPSREEMTKNQVSLTCLVKGFYPSDIAVEWESNGQPENNYKTTPPVLDSDGSFFLYSKLTVDKSRWQQGNVFSCSVMHEALHNHYTQKSLSLSP light: DIVMTQSPATLSLSPGERATLSCTSSQSVYHANWLSWFQQKPGQPPKLLIYWASTLAYGVPSRFSGSGSGTDFTLTISSLQPEDAATYYCAGGYGGGRYAFGQGTKVEIKRTVAAPSVFIFPPSDEQLKSGTASVVCLLNNFYPREAKVQWKVDNALQSGNSQESVTEQDSKDSTYSLSSTLTLSKADYEKHKVYACEVTHQGLSSPVTKSFNRGEC | 1.7 | 3.2 | 4 | 3.8 | 0.2 | 2.9 | 2.2 | 2.4 | 0.3
M103205H795-MY463/M103202L889-SK1 (antibody, human IgG1, kappa, copies: 2 + 2) heavy: QVTLKESGPVLVKPTETLTLTCTVSGIDLSHDDISWVRQAPGKGLEWVGIISYAGSTYYASWAKGRLTISKDTSKNQVVLTMTNMDPVDTATYYCARGVPAYSHGGDLWGQGTLVTVSSASTKGPSVFPLAPSSKSTSGGTAALGCLVKDYFPEPVTVSWNSGALTSGVHTFPAVLQSSGLYSLSSVVTVPSSSLGTQTYICNVNHKPSNTKVDKKVEPKSCDKTHTCPPCPHPELLTGPSVFLFPPKPKDTLMISRTPEVTCVVVDVSDEDPEVKFNWYVDGVEVHNAKTKPREEQYNSTYRVVSVLTVLHQDWLNGKEYKCKVSNKALPKPIEKTISKAKGQPREPQVYTLPPSREEMTKNQVSLTCLVKGFYPSDIAVEWESNGQPENNYKTTPPVLDSDGSFFLYSKLTVDKSRWQQGNVFSCSVMHEALHNHYTQKSLSLSP light: DIVMTQSPATLSLSPGERATLSCTSSQSVYHANWLSWFQQKPGQPPKLLIYWASTLAYGVPSRFSGSGSGTDFTLTISSLQPEDAATYYCAGGYGGGRYAFGQGTKVEIKRTVAAPSVFIFPPSDEQLKSGTASVVCLLNNFYPREAKVQWKVDNALQSGNSQESVTEQDSKDSTYSLSSTLTLSKADYEKHKVYACEVTHQGLSSPVTKSFNRGEC | 1.5 | 2.3 | 3.9 | 3.1 | 0.2 | 3.1 | 2.2 | 2 | 0.2
